Experiments:
[1] = biological target: SARS-CoV receptor binding domain (RBD), His-tagged (SARS-CoV, UniProt P59594 306-527); test: SPR
[2] = biological target: SARS-CoV-2 receptor binding domain (RBD), His-tagged (SARS-CoV-2, UniProt P0DTC2 319-541); test: SPR

B1: pig ACE2 ectodomain fused with mouse Fc (Fc fusion)
chain: QSTTEELAKTFLEKFNLEAEDLAYQSSLASWNYNTNITDENIQKMNDARAKWSAFYEEQSRIAKTYPLDEIQTLILKRQLQALQQSGTSGLSADKSKRLNTILNTMSTIYSSGKVLDPNNPQECLVLEPGLDEIMENSKDYSRRLWAWESWRAEVGKQLRPLYEEYVVLENEMARANNYEDYGDYWRGDYEVTGTGDYDYSRNQLMEDVERTFAEIKPLYEHLHAYVRAKLMDAYPSRISPTGCLPAHLLGDMWGRFWTNLYPLTVPFGEKPSIDVTEAMVNQSWDAIRIFEEAEKFFVSIGLPNMTQGFWNNSMLTEPGDGRKVVCHPTAWDLGKGDFRIKMCTKVTMDDFLTAHHEMGHIQYDMAYAIQPYLLRNGANEGFHEAVGEIMSLSAATPHYLKALGLLPPDFYEDSETEINFLLKQALTIVGTLPFTYMLEKWRWMVFKGEIPKEQWMQKWWEMKREIVGVVEPLPHDETYCDPACLFHVAEDYSFIRYYTRTIYQFQFHEALCRTAKHEGPLYKCDISNSTEAGQKLLQMLSLGKSEPWTLALENIVGVKTMDVKPLLSYFEPLLTWLKAQNGNSSVGWNTDWTPYADQSIKVRISLKSALGKEAYEWNDNEMYLFRSSIAYAMRNYFSSAKNETIPFGAEDVWVSDLKPRISFNFFVTSPANMSDIIPRSDVEKAISMSRSRINDAFRLDDNTLEFLGIQPTLGPPDEPPVT
Kd [1]: 35.8 nM
Kd [2]: 47.6 nM

Source: article PMC7526519 (2020)
